# Patent US20260167699A1 (Chugai, published 2026)
# Changes are numbered by the printed parent chain.
# B1: GpH7-A5/GpH7-B3 variant S239_14T/GpL16-k0 (antibody, human IgG1, kappa)
# heavy 1: not shown
# heavy 2: not shown
# light: DIVMTQSPLSLPVTPGEPASISCQASESLVHSNRNTYLHWYLQKPGQSPQLLIYKVSNRFSGVPDRFSGSGSGTDFTLKISRVEAEDVGVYYCSQNTHVPPTFGQGTKVEIERTVAAPSVFIFPPSDEQLKSGTASVVCLLNNFYPREAKVQWKVDNALQSGNSQESVTEQDSKDSTYSLSSTLTLSKADYEKHKVYACEVTHQGLSSPVTKSFNRGEC
# B2: GpH7-A5/GpH7-B3 variant S267_02A/GpL16-k0 (antibody, human IgG1, kappa)
# heavy 1: not shown
# heavy 2: not shown
# light: B1 light
# B3: GpH7-A5/GpH7-B3 variant S267_10E/GpL16-k0 (antibody, human IgG1, kappa)
# heavy 1: not shown
# heavy 2: not shown
# light: B1 light
# B4: GpH7-A5/GpH7-B3 variant V266_02A/GpL16-k0 (antibody, human IgG1, kappa)
# heavy 1: not shown
# heavy 2: not shown
# light: B1 light
# B5: GpH7-A5/GpH7-B3 variant V266_08L/GpL16-k0 (antibody, human IgG1, kappa)
# heavy 1: not shown
# heavy 2: not shown
# light: B1 light
# B6: GpH7-A5/GpH7-B3 variant S267_01G/GpL16-k0 (antibody, human IgG1, kappa)
# heavy 1: not shown
# heavy 2: not shown
# light: B1 light
# B7: GpH7-A5/GpH7-B3 variant S239_18N/GpL16-k0 (antibody, human IgG1, kappa)
# heavy 1: not shown
# heavy 2: not shown
# light: B1 light
# B8: GpH7-A5/GpH7-B3 variant S267_09D/GpL16-k0 (antibody, human IgG1, kappa)
# heavy 1: not shown
# heavy 2: not shown
# light: B1 light
# B9: GpH7-A5/GpH7-B3 variant S267_19Q/GpL16-k0 (antibody, human IgG1, kappa)
# heavy 1: not shown
# heavy 2: not shown
# light: B1 light
# B10: GpH7-A5/GpH7-B3 variant S239_19Q/GpL16-k0 (antibody, human IgG1, kappa)
# heavy 1: not shown
# heavy 2: not shown
# light: B1 light
# B11: GpH7-A5/GpH7-B3 variant V266_07I/GpL16-k0 (antibody, human IgG1, kappa)
# heavy 1: not shown
# heavy 2: not shown
# light: B1 light
# B12: GpH7-A5/GpH7-B3 variant V266_06M/GpL16-k0 (antibody, human IgG1, kappa)
# heavy 1: not shown
# heavy 2: not shown
# light: B1 light
# B13: GpH7-A5/GpH7-B3 variant S324_14T/GpL16-k0 (antibody, human IgG1, kappa)
# heavy 1: not shown
# heavy 2: not shown
# light: B1 light
# notes: He Ab: heterodimerized IgG1, one H chain mutated
# B14: GpH7-A5/GpH7-B3 variant A330_16H/GpL16-k0 (antibody, human IgG1, kappa)
# heavy 1: not shown
# heavy 2: not shown
# light: B1 light
# notes: as for B13
# B15: GpH7-A5/GpH7-B3 variant A330_03V/GpL16-k0 (antibody, human IgG1, kappa)
# heavy 1: not shown
# heavy 2: not shown
# light: B1 light
# notes: as for B13
# B16: GpH7-A5/GpH7-B3 variant A327_06M/GpL16-k0 (antibody, human IgG1, kappa)
# heavy 1: not shown
# heavy 2: not shown
# light: B1 light
# notes: as for B13
# B17: GpH7-A5/GpH7-B3 variant A327_20W/GpL16-k0 (antibody, human IgG1, kappa)
# heavy 1: not shown
# heavy 2: not shown
# light: B1 light
# notes: as for B13
# B18: GpH7-A5/GpH7-B3 variant A327_19Q/GpL16-k0 (antibody, human IgG1, kappa)
# heavy 1: not shown
# heavy 2: not shown
# light: B1 light
# notes: as for B13
# B19: GpH7-A5/GpH7-B3 variant A327_10E/GpL16-k0 (antibody, human IgG1, kappa)
# heavy 1: not shown
# heavy 2: not shown
# light: B1 light
# notes: as for B13
# B20: GpH7-A5/GpH7-B3 variant A327_13S/GpL16-k0 (antibody, human IgG1, kappa)
# heavy 1: not shown
# heavy 2: not shown
# light: B1 light
# notes: as for B13
# B21: GpH7-A5/GpH7-B3 variant A330_04F/GpL16-k0 (antibody, human IgG1, kappa)
# heavy 1: not shown
# heavy 2: not shown
# light: B1 light
# notes: as for B13
# B22: GpH7-A5/GpH7-B3 variant A327_09D/GpL16-k0 (antibody, human IgG1, kappa)
# heavy 1: not shown
# heavy 2: not shown
# light: B1 light
# notes: as for B13
# B23: GpH7-A5/GpH7-B3 variant A330_10E/GpL16-k0 (antibody, human IgG1, kappa)
# heavy 1: not shown
# heavy 2: not shown
# light: B1 light
# notes: as for B13
# B24: GpH7-A5/GpH7-B3 variant A330_07I/GpL16-k0 (antibody, human IgG1, kappa)
# heavy 1: not shown
# heavy 2: not shown
# light: B1 light
# notes: as for B13
# B25: GpH7-A5/GpH7-B3 variant A327_18N/GpL16-k0 (antibody, human IgG1, kappa)
# heavy 1: not shown
# heavy 2: not shown
# light: B1 light
# notes: as for B13
# B26: GpH7-A5/GpH7-B3 variant A327_05P/GpL16-k0 (antibody, human IgG1, kappa)
# heavy 1: not shown
# heavy 2: not shown
# light: B1 light
# notes: as for B13
# B27: GpH7-A5/GpH7-B3 variant A330_14T/GpL16-k0 (antibody, human IgG1, kappa)
# heavy 1: not shown
# heavy 2: not shown
# light: B1 light
# notes: as for B13
# B28: GpH7-A5/GpH7-B3 variant A330_08L/GpL16-k0 (antibody, human IgG1, kappa)
# heavy 1: not shown
# heavy 2: not shown
# light: B1 light
# notes: as for B13
# B29: GpH7-A5/GpH7-B3 variant A330_01G/GpL16-k0 (antibody, human IgG1, kappa)
# heavy 1: not shown
# heavy 2: not shown
# light: B1 light
# notes: as for B13
# B30: GpH7-A5/GpH7-B3 variant A330_09D/GpL16-k0 (antibody, human IgG1, kappa)
# heavy 1: not shown
# heavy 2: not shown
# light: B1 light
# notes: as for B13
# Target: T1, FcγRIIa(H) extracellular domain, His-tagged (human, UniProt P12318 34-217)
# T1 construct: extracellular domain; also called 2aH
# T1 sequence: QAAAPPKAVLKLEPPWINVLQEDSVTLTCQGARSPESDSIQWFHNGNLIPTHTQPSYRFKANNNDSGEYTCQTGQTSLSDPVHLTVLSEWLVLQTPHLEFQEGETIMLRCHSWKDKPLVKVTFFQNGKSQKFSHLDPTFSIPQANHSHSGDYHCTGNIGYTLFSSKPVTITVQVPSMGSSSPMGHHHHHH
# Assay: SPR, vs GpH7-A5/GpH7-B3/GpL16-k0 =100
row,Binder,He/Con 2aH
1,B1,95.9 % of control
2,B2,121 % of control
3,B3,103 % of control
4,B4,69.7 % of control
5,B5,106 % of control
6,B6,72.1 % of control
7,B7,91.1 % of control
8,B8,107 % of control
9,B9,61.9 % of control
10,B10,80 % of control
11,B11,107 % of control
12,B12,84.8 % of control

# Target: T2, FcγRIIb extracellular domain, His-tagged (human, UniProt P31994 43-217)
# T2 construct: extracellular domain; also called 2b
# T2 sequence: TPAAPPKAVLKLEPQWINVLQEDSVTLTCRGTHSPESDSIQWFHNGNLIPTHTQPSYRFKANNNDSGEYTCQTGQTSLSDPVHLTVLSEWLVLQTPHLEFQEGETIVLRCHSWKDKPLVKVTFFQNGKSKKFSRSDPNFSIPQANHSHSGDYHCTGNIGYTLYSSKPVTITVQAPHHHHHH
# Assay: SPR, vs GpH7-A5/GpH7-B3/GpL16-k0 =100
row,Binder,He/Con 2b
1,B1,98.6 % of control
2,B2,256 % of control
3,B3,398 % of control
4,B4,85.1 % of control
5,B5,248 % of control
6,B6,110 % of control
7,B7,121 % of control
8,B8,326 % of control
9,B9,228 % of control
10,B10,87.3 % of control
11,B11,160 % of control
12,B12,264 % of control

# Target: T3, FcγRIIIa extracellular domain, His-tagged (human, UniProt P08637 17-208)
# T3 construct: extracellular domain; also called 3a
# T3 sequence (P08637 other isoform, or with tags, fused parts or gaps): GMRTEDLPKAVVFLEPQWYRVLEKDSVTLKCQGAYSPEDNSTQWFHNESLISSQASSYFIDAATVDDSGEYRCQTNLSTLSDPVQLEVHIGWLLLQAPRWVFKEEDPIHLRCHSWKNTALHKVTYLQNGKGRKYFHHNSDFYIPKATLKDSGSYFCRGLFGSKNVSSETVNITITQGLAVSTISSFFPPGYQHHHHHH
# Assay: SPR, vs GpH7-A5/GpH7-B3/GpL16-k0 =100
row,Binder,He/Con 3a
1,B1,93 % of control
2,B2,149 % of control
3,B3,90.9 % of control
4,B4,56.8 % of control
5,B5,117 % of control
6,B6,53.3 % of control
7,B7,104 % of control
8,B8,179 % of control
9,B9,64.3 % of control
10,B10,53.8 % of control
11,B11,113 % of control
12,B12,84.9 % of control

# Target: T4, FcγRIa extracellular domain, His-tagged (human, UniProt P12314 16-292)
# T4 construct: extracellular domain; also called 1a
# T4 sequence (P12314 other isoform, or with tags, fused parts or gaps): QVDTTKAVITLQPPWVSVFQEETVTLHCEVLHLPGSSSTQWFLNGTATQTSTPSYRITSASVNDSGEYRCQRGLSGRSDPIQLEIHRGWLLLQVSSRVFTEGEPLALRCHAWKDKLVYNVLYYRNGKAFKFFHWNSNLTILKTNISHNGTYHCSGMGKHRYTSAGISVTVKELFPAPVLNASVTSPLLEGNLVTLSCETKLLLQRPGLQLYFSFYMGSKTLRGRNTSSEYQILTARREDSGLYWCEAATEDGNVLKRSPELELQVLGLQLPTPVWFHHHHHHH
# Assay: SPR, vs GpH7-A5/GpH7-B3/GpL16-k0 =100
row,Binder,He/Con 1a
1,B1,104 % of control
2,B2,105 % of control
3,B3,102 % of control
4,B4,93.8 % of control
5,B5,94.9 % of control
6,B6,99.9 % of control
7,B7,104 % of control
8,B8,106 % of control
9,B9,99.2 % of control
10,B10,104 % of control
11,B11,96.1 % of control
12,B12,96.5 % of control

# Target: T5, FcγRIIa(R) extracellular domain, His-tagged (human, UniProt P12318 34-217)
# T5 construct: extracellular domain; also called 2aR
# T5 sequence: T1 sequence with H134R
# Assay: SPR, vs GpH7-A5/GpH7-B3/GpL16-k0 =100
row,Binder,He/Con 2aR
1,B1,97.4 % of control
2,B2,167 % of control
3,B3,188 % of control
4,B4,88.8 % of control
5,B5,152 % of control
6,B6,121 % of control
7,B7,104 % of control
8,B8,186 % of control
9,B9,145 % of control
10,B10,79.8 % of control
11,B11,129 % of control
12,B12,161 % of control

# Target: T6, FcγRIIa(H) (human, UniProt P12318 34-217)
# T6 construct: extracellular domain; also called 2aH
# T6 sequence: T1 sequence
# Assay: SPR, relative to GpH7-A5/GpH7-B3/GpL16-k0 =100
row,Binder,He/Con 2aH [%]
1,B13,107
2,B14,110
3,B15,86.1
4,B16,89.3
5,B17,76.6
6,B18,79.6
7,B19,108
8,B20,84.4
9,B21,104
10,B22,124
11,B23,87.7
12,B24,94.4
13,B25,79
14,B26,67.9
15,B27,102
16,B28,94.7
17,B29,107
18,B30,67.8

# Target: T7, FcγRIa (human, UniProt P12314 16-292)
# T7 construct: extracellular domain; also called 1a
# T7 sequence (P12314 other isoform, or with tags, fused parts or gaps): as above
# Assay: SPR, relative to GpH7-A5/GpH7-B3/GpL16-k0 =100
row,Binder,He/Con 1a [%]
1,B13,114
2,B14,109
3,B15,109
4,B16,106
5,B17,100
6,B18,98.5
7,B19,106
8,B20,105
9,B21,110
10,B22,105
11,B23,111
12,B24,109
13,B25,100
14,B26,102
15,B27,108
16,B28,110
17,B29,109
18,B30,112

# Target: T8, FcγRIIa(R) (human, UniProt P12318 34-217)
# T8 construct: extracellular domain; also called 2aR
# T8 sequence: T1 sequence with H134R
# Assay: SPR, relative to GpH7-A5/GpH7-B3/GpL16-k0 =100
row,Binder,He/Con 2aR [%]
1,B13,93.9
2,B14,111
3,B15,84
4,B16,80
5,B17,95.9
6,B18,77.7
7,B19,142
8,B20,98.6
9,B21,112
10,B22,159
11,B23,97.2
12,B24,96
13,B25,114
14,B26,80.6
15,B27,107
16,B28,99.7
17,B29,122
18,B30,79.5

# Target: T9, FcγRIIb (human, UniProt P31994 43-217)
# T9 construct: extracellular domain; also called 2b
# T9 sequence: T2 sequence
# Assay: SPR, relative to GpH7-A5/GpH7-B3/GpL16-k0 =100
row,Binder,He/Con 2b [%]
1,B13,115
2,B14,99
3,B15,59.2
4,B16,74.1
5,B17,98.2
6,B18,67.5
7,B19,175
8,B20,99
9,B21,105
10,B22,214
11,B23,79.2
12,B24,75.8
13,B25,141
14,B26,86.3
15,B27,87.9
16,B28,79.6
17,B29,117
18,B30,62.8
